Where no end group is shown, it is not given here. [ ]: non-standard residue; d: D form. The star is where a group is joined. Stearoyl = CCCCCCCCCCCCCCCCCC(=O)*; R8 = C=CCCCCCC[C@@](C)(N)C(=O)O; Orn = NCCC[C@H](N)C(=O)O
Experiments:
[1] = tested on: HeLa pLuc705 cells; assay: Splicing correction luciferase assay (Kole's assay); conditions: hPep3 dissolved in the mixture of dimethyl sulfoxide; 100 nM SCO-705, 500 nM peptide, 24 h; FIG. 5
[2] = tested on: human primary keratinocytes; assay: Transfection with EGFP-coding mRNA/CPP complexes; assay type: cell-based; conditions: CPP solutions in mixture of organic solvents; 200 ng mRNA, 520 nM CPP, 20 h; FIG. 3
Protocol: The complexes of 200 ng of mRNA with 520 nM CPP were added into culture medium above cells per well of 24-well plate for 20 h. For the delivery and expression of EGFP, mRNA complexes were assembled with NF71 (dissolved at 1 mM concentration in ethanol/DMSO/trimethylene carbonate 78/20/2) or PF14 (PF14o—dissolved at 1 mM concentration in ethanol/DMSO, or in water—PF14w).
The CPP nanoparticles with mRNA are formed in a similar manner with pDNA. mRNA at concentration 10 μg/ml is complexed with 10 μM PF14 CPP in Milli-Qwater. If required, Ca or Mg ions are incorporated in CPP-mRNA nanoparticles as described above. Unlike other particle solutions described above, CPP-mRNA 10× solutions are directly added into growth medium where cells have been incubated. The preferred N/P ratio (“charge ratio”) of CPP to mRNA is 2. Depending on the charge of used CPP, type of cells and experiment, N/P ratio can be varied in the range 1.5 to 4. For delivery of mRNA into human primary cells, preferentially Mg ions are incorporated in CPP nanoparticles.

[3] = Transmission electron microscopy (TEM) of size and shape of CPP particles; assay type: physicochemical
Protocol: (§1) The diameter and zeta potential of CPP nanoparticles may be measured using dynamic light scattering (DLS) or nanoparticle tracking analysis system (NTA) (1), (4) (using 0.01 mM peptide). The morphology of NP is analysed by transmission electron microscopy (TEM) (11), scanning electron microscopy (SEM) or atomic force microscopy (AFM) using 0.1 or 0.01 mM peptide solution.
Analysis of the size and shape of CPP nanoparticles and their complexes with cargo nucleic acids by transmission electron microscopy (TEM) confirmed data from DLS analysis. Depending on the solvent used for preparation of 1 mM peptide solutions, the particles of CPP were largely different.

[4] = Dynamic light scattering (DLS) size and polydispersity of CPP particles after dilution in water; assay type: physicochemical; conditions: PF14 in isopropanol/DMSO/trimethylene carbonate (90/9/1), further 10-fold dilution
Protocol: as §1
The physical characteristics (diameter and zeta-potential) of the peptide micelles/aggregates/nanoparticles were analysed by dynamic light scattering (DLS) using a ZetaView (Particle Metrix, Germany) or ZetasizerNano ZS apparatus (Malvern Instruments, UK) at 10 μM concentration in water.
DLS analysis of the size of CPP particles forming after 100-fold dilution of 1 mM peptide solution in Milli-Q water or organic solvents (ambient temperature) is provided in Table 1.
The optimal size of nanoparticles to be used for drug delivery in vivo is in range of 100 nm (between 10 and 200 nm), and the lack of large aggregates is highly essential. In order to analyse the size of CPP clusters that form in water, DLS traces were measured by Malvern Zetasizer Nano ZS. Four consecutive measurements were performed with each sample for the calculation of the size and polydispersity of the forming CPP particles.

Question: Which “efficiency of nanoparticles with SCO cargo compared with water-dissolved hPep3” value [1] does the source give for “hPep3 (L[R8][dK]LAKA[R8]AKLLKA[R8]AKAL; staple (positions not given here); also: three R8 olefin residues, staple pairing not given here)” here?
Answer: same efficiency

Question: For “NickFect 71 (Stearoyl-HHYHHGXILLKALKALAKAIL-NH2; not fully specified (residue 7); printed as HHYHHGObILLKALKALAKAIL; also: Gly6 joined to the Orn7 side-chain delta-amino instead of its alpha-amino) [NF71]”, which “transfection of EGFP mRNA and expression of EGFP” value [2] is on record?
Answer: enable transfection

Question: With “PepFect 14 (Stearoyl-AGYLLGKLL[Orn][Orn]LAAAAL[Orn][Orn]LL-NH2) [PF14, Stearyl (C18)-…OOLAAAALOOLL, C-terminal amide]” as the substance, how does the “aggregates present in specimen” value ([3]; PF14 in isopropanol/DMSO/trimethylene carbonate (90/9/1) at 1 mM, diluted in water to 0.1 mM, TEM) read?
Answer: No aggregates

Question: And the “diameter of spherical nanoparticles” value ([3]; PF14 in isopropanol/DMSO/trimethylene carbonate (90/9/1) at 1 mM, quick dilution in water to 0.1 mM, TEM)?
Answer: 40-60 nm

Question: And the “larger PF14 particles observed in TEM images” value ([3]; PF14 in isopropanol/DMSO/trimethylene carbonate (90/9/1), 0.1 mM in water)?
Answer: 100-150 nm

Question: What about the “transfection of EGFP mRNA and expression of EGFP” value [2] of the same substance?
Answer: enable transfection

Question: What about the “average diameter of uniform NP” value [4] of the same substance?
Answer: ~100 nm

Reference: patent publication US20240139115A1, “Novel Method for Preparation of Nanoparticles Comprising Cell Penetrating Peptides” (CELLPEPT SWEDEN AB, priority 2021, published 2024)
